# In IntAct's records for PubMed 20562859:
# B1: Gamma-aminobutyric acid receptor-associated protein (Homo sapiens), O95166 (parent)
# chain: MKFVYKEEHPFEKRRSEGEKIRKKYPDRVPVIVEKAPKARIGDLDKKKYLVPSDLTVGQFYFLIRKRIHLRAEDALFFFVNNVIPPTSATMGQLYQEHHEEDFFLYIAYSDESVYGL
# partner: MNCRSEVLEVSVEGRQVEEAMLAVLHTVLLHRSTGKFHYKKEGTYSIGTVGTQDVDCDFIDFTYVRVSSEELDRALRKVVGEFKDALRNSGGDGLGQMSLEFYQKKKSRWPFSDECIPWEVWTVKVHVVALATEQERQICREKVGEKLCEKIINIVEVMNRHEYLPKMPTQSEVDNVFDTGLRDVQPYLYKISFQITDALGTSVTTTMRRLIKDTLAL
# B2: Gamma-aminobutyric acid receptor-associated protein (Homo sapiens), O95166 (parent)
# chain: B1 chain
# partner: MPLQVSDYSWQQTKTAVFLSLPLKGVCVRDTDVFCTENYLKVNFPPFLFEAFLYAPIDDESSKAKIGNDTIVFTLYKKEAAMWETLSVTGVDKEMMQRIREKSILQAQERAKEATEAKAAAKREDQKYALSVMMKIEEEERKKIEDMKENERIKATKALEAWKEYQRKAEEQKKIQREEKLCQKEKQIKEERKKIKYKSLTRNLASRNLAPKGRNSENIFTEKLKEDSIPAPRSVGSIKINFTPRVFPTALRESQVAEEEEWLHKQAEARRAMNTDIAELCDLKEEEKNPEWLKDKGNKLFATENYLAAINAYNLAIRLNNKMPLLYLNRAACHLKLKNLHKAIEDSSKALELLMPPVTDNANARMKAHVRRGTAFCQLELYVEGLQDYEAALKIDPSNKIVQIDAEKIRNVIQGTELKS
# B3: Gamma-aminobutyric acid receptor-associated protein (Homo sapiens), O95166 (parent)
# chain: B1 chain
# partner: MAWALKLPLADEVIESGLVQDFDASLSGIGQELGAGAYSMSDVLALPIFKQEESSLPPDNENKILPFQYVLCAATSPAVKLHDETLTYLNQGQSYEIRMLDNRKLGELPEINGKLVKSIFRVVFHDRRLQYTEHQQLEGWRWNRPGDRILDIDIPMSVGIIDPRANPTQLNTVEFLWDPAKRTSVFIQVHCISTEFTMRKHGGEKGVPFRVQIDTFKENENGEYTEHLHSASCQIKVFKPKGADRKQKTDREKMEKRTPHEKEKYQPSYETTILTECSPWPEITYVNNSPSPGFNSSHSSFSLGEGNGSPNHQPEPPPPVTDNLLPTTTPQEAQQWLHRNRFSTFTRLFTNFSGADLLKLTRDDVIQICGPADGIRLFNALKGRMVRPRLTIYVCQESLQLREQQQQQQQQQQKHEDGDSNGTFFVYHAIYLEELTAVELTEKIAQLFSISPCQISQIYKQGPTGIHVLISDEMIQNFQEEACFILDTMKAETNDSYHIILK
# B4: Gamma-aminobutyric acid receptor-associated protein (Homo sapiens), O95166 (parent)
# chain: B1 chain
# partner: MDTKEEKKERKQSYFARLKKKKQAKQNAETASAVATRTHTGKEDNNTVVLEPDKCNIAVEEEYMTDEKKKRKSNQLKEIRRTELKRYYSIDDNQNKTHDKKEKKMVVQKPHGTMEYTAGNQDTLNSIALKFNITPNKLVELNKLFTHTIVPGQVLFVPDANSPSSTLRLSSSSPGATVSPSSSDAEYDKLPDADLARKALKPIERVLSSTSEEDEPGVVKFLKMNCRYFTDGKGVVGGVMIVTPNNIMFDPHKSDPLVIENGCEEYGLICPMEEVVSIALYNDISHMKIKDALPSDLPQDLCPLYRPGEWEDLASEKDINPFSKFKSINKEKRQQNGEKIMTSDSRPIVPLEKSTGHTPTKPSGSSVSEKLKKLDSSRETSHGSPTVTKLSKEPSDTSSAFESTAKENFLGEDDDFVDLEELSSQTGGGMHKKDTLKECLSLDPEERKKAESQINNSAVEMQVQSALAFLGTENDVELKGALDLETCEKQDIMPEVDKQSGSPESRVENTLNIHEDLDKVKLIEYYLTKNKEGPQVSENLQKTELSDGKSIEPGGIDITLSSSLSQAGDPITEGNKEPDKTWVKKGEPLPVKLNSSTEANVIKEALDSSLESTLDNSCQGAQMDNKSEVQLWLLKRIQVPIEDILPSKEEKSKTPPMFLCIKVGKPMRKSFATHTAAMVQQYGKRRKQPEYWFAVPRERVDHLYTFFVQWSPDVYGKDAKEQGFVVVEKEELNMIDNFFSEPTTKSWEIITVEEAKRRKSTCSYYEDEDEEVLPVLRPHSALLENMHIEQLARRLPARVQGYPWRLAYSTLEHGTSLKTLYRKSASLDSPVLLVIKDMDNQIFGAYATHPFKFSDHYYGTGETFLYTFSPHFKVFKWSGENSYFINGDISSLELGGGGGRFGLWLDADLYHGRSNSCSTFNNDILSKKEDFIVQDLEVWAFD
# B5: Gamma-aminobutyric acid receptor-associated protein (Homo sapiens), O95166 (parent)
# chain: B1 chain
# partner: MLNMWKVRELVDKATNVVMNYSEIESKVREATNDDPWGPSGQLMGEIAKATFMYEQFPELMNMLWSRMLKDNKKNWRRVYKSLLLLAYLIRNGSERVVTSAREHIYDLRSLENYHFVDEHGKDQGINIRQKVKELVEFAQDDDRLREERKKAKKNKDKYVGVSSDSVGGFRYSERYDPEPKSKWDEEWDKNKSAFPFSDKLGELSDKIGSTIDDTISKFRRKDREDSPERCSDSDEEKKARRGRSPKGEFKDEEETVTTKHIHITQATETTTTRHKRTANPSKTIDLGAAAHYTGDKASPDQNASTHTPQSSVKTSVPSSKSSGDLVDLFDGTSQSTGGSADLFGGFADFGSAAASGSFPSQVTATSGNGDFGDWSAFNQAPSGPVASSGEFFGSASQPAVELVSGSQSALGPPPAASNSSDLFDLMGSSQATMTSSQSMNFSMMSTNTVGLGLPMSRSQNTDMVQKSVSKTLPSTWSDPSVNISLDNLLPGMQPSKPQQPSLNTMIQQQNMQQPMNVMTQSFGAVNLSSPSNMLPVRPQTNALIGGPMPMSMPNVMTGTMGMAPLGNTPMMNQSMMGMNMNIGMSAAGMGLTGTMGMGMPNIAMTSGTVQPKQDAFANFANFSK
# B6: Gamma-aminobutyric acid receptor-associated protein (Homo sapiens), O95166 (parent)
# chain: B1 chain
# partner: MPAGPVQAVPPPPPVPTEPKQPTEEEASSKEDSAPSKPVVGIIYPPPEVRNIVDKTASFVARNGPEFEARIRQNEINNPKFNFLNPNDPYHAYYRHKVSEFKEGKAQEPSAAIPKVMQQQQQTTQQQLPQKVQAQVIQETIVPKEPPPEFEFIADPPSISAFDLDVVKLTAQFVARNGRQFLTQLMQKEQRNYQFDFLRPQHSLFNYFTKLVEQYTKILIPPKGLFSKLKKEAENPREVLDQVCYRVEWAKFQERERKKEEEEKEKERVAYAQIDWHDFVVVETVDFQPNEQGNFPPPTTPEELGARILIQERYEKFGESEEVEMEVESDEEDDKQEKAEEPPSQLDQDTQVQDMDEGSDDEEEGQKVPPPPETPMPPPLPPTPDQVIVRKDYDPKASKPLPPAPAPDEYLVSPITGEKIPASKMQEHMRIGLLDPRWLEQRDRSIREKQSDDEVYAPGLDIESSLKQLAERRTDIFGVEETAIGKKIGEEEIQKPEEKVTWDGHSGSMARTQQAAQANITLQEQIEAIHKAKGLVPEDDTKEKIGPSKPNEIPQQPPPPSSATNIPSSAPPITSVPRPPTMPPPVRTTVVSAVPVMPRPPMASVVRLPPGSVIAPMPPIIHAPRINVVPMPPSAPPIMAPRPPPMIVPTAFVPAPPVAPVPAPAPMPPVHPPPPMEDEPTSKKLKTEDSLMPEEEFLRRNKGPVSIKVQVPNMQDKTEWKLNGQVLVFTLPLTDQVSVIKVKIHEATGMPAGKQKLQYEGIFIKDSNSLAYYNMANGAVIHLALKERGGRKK
# B7: Gamma-aminobutyric acid receptor-associated protein (Homo sapiens), O95166 (parent)
# chain: B1 chain
# partner: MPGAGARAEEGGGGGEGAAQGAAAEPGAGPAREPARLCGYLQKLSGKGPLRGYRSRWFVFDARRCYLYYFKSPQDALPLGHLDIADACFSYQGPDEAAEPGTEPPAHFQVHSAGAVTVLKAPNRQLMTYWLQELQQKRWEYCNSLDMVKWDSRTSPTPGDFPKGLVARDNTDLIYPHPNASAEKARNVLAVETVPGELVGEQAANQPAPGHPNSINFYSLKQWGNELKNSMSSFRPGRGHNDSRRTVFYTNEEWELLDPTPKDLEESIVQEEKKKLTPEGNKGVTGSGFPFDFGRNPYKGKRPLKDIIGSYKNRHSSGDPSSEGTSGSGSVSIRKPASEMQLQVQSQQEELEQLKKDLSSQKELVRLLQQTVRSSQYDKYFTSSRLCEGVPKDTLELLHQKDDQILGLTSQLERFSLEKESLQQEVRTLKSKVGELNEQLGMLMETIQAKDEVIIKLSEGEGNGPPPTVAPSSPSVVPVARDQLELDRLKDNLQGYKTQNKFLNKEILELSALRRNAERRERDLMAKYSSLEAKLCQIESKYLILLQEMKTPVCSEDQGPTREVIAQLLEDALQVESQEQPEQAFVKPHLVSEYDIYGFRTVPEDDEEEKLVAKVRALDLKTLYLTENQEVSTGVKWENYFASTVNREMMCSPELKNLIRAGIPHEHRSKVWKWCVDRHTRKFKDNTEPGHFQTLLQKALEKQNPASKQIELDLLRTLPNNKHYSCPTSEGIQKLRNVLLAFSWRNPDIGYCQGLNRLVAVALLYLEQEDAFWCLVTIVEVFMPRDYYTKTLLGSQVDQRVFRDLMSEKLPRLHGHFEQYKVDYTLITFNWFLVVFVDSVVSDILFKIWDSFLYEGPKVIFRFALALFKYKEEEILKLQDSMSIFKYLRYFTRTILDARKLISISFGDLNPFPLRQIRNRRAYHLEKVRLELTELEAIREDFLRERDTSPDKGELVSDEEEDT
# B8: Gamma-aminobutyric acid receptor-associated protein (Homo sapiens), O95166 (parent)
# chain: B1 chain
# Variants of: B1
# Conditions: with atga1_human ATG101, Q9BSB4
row,Variant,effect of a mutation on the interaction
1,Y49A;L50A,increasing interaction
2,R71A,increasing interaction

# Variants of: B2
# Conditions: with daaf4_human DNAAF4, Q8WXU2
row,Variant,effect of a mutation on the interaction
1,Y49A;L50A,decreasing interaction

# Variants of: B3
# Conditions: with tfcp2_human TFCP2, Q12800
row,Variant,effect of a mutation on the interaction
1,Y49A;L50A,decreasing interaction
2,R71A,increasing interaction

# Variants of: B4
# Conditions: with ncoa7_human NCOA7, Q8NI08
row,Variant,effect of a mutation on the interaction
1,Y49A;L50A,decreasing interaction

# Variants of: B5
# Conditions: with epn4_human CLINT1, Q14677
row,Variant,effect of a mutation on the interaction
1,Y49A;L50A,decreasing interaction

# Variants of: B6
# Conditions: with sf3a1_human SF3A1, Q15459
row,Variant,effect of a mutation on the interaction
1,Y49A;L50A,decreasing interaction

# Variants of: B7
# Conditions: with tbd2b_human TBC1D2B
row,Variant,effect of a mutation on the interaction
1,Y49A;L50A,decreasing interaction

# Variants of: B8
# Conditions: with atg2a_human ATG2A
row,Variant,effect of a mutation on the interaction
1,Y49A;L50A,decreasing interaction

# Variants of: B8
# Conditions: with atg3_human ATG3, Q9NT62
# Chain of atg3_human ATG3, Q9NT62 (Q9NT62 whole entry): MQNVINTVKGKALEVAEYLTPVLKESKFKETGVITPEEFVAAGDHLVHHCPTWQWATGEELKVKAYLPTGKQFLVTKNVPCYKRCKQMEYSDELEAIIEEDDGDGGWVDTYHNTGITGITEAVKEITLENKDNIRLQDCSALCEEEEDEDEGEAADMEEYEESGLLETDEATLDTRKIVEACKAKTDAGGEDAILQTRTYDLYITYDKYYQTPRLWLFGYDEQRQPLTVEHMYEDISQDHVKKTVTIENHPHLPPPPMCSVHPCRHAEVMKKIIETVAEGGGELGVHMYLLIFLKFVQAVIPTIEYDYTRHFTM
row,Variant,effect of a mutation on the interaction
1,Y49A;L50A,disrupting interaction

# Variants of: B8
# Conditions: with echa_human HADHA
row,Variant,effect of a mutation on the interaction
1,Y49A;L50A,decreasing interaction

# Variants of: B8
# Conditions: with nedd4_human NEDD4, P46934
# Chain of nedd4_human NEDD4, P46934 (P46934 whole entry): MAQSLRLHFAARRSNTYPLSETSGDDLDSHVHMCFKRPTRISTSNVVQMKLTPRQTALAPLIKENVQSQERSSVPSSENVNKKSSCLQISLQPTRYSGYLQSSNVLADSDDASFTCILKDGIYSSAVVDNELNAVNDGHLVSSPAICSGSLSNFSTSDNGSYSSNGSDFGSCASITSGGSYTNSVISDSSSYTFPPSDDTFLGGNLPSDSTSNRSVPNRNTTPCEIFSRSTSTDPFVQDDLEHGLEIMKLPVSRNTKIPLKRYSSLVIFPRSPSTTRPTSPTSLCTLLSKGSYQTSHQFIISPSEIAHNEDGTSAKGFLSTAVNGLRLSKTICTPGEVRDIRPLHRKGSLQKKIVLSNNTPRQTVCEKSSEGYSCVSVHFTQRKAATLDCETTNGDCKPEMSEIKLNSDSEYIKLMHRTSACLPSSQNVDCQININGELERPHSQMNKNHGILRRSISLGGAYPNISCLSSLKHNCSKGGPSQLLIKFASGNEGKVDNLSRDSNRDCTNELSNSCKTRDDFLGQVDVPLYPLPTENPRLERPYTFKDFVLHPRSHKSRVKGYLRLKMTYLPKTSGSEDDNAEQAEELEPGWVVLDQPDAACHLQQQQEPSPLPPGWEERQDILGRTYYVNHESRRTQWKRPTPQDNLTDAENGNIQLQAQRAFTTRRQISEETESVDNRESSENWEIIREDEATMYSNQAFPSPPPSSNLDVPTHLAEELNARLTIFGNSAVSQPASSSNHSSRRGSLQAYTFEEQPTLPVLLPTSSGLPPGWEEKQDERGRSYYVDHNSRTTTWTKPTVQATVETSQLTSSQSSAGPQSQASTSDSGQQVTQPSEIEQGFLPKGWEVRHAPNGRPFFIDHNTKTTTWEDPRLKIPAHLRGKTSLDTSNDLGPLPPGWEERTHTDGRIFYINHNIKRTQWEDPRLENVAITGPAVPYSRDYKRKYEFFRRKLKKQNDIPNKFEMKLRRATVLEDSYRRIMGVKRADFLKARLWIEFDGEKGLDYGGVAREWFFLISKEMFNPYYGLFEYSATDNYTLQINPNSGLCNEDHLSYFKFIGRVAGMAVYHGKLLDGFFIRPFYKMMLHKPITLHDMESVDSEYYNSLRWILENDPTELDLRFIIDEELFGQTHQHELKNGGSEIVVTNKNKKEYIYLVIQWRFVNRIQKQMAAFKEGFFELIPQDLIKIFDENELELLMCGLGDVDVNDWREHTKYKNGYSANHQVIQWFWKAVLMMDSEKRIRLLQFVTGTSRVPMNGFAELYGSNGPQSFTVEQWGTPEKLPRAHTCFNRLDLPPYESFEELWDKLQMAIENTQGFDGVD
row,Variant,effect of a mutation on the interaction
1,Y49A;L50A,disrupting interaction
